We go through five molecules from US12018081B1, “Photoconjugation reactions for modification of specific proteins on live cells” (The Regents of the University of Colorado, a body, priority 2019, dated 2024).

Data set [1] concerns the target Extracellular domain of purified human EGFR (Sino Biological) (human) (UniProt P00533). The data set is described as follows: microscale thermophoresis, AF647-labelled soluble EGFR, fusion protein titrated.
The target in data set [2] is EGFR expressed on live MDA-MB-468 human breast carcinoma cells (human) (UniProt P00533). The data set is described as follows: cell-based or functional assay.
The next data set relates to MDA-MB-468 cells. It counts as cell-based, human. The note with it: drug or prodrug only, no protein, FIG. 4. On the procedure: Finally, having established both the photocrosslinking of the […] affibody-enzyme to EGFR on living cells and retention of protein expression before and after endocytosis, the enzymatic activity of the fusion proteins was then leveraged for cell killing by prodrug conversion. […] Next, prodrug therapy experiments were run against MDA-MB-468 cells in vitro. In 96-well plates, cells were incubated with 1 μM of WT-CodA, N23-CodA, or CodA alone. As before, after 3 h the cells were irradiated with 365 nm light for 30 min followed by further incubation to a total time of 8, 24, or 48 h. When each time point was reached, the excess affibody-enzymes were removed by washing the cells three times with PBS, and 2 mM of 5-FC was added. […] After 12 h incubation with 5-FC, excess pro-drug was removed, cells were washed with PBS, and viability was measured by MTT assay. […]
Prodrug Cytotoxicity (MTT) Assays: The MDA-MB-468 cells were grown to confluence, after which the cells were washed once with DPBS (Gibco) and then trypsinized with 0.025% trypsin-EDTA (Gibco). […] The crystals were dissolved in 100 μL isopropyl alcohol (IPA), and absorbance from the wells was measured at 570 nm in a Tecan Safire II Multimode Plate reader. The readings were then normalized to the cells that were treated with neither enzyme, enzyme-affibody, nor 5-FC/5-FU to calculate the fractional viability. […]

Data set [3] in a line: Affibody-enzyme kinetic activity assay with cytosine (UV-Vis). It counts as biochemical. The note with it: 50 nM enzyme, cytosine 100-250 μM, 50 mM Tris-HCl pH 7.5. On the procedure:
Affibody-enzyme Kinetic Activity Assays with Cytosine: The enzymatic assay for N23-CodA, WT-CodA, and CodA were performed by varying substrate concentration and measuring the absorbance using a UV-VIS spectrophotometer (Agilent Technologies, Cary Series 100). A stock of 10 mM cytosine was prepared in 50 mM Tris-HCl at pH 7.5. Varying concentrations (250, 200, 150 and 100 μM) of cytosine solution were prepared from the stock and mixed with 50 nM of the enzyme and enzyme-affibodies. The reaction was run for 15 min with OD267 (cytosine) and OD260 (uracil) readings taken every 12 s. The concentration of cytosine was calculated for each time point and the kinetic parameters KM and kcat were calculated using the methods of initial rates and double reciprocal plots.

The conditions of data set [4]: reported value for free CodA; cited from earlier work.

In data set [1], “WT affibody-fused CodA (ZEGFR:1907 affibody fused to cytosine deaminase) (from UniProt P25524 2-427) (designed binder)” returned a Kd of 25 nM. This lies in the double-digit nanomolar range. As to “BP-modified mutant affibody-enzyme (N23C ZEGFR:1907 affibody with benzophenone, fused to cytosine deaminase) (from UniProt P25524 2-427) (designed binder)”, in data set [1], the Kd was 44 nM. The cell viability of MDA-MB-468 cells by MTT assay after 5-FC prodrug in data set [2] fell in the range of 50 to 55%.

Turning to `Nc1nc(=O)[nH]cc1F` [5-FC, 5-fluorocytosine], the “baseline viability (cell viability fraction)” value in the data set with MDA-MB-468 cells was determined as 0.854. Still for that read-out and setting: the value for `O=c1[nH]cc(F)c(=O)[nH]1` [5-FU, 5-fluorouracil] was 0.467.

B1: CodA: Cytosine deaminase, bacterial enzyme of E. coli, alone without affibody (protein, UniProt P25524 2-427, looked up)
Cytosine deaminase: SNNALQTIINARLPGEEGLWQIHLQDGKISAIDAQSGVMPITENSLDAEQGLVIPPFVEPHIHLDTTQTAGQPNWNQSGTLFEGIERWAERKALLTHDDVKQRAWQTLKWQIANGIQHVRTHVDVSDATLTALKAMLEVKQEVAPWIDLQIVAFPQEGILSYPNGEALLEEALRLGADVVGAIPHFEFTREYGVESLHKTFALAQKYDRLIDVHCDEIDDEQSRFVETVAALAHHEGMGARVTASHTTAMHSYNGAYTSRLFRLLKMSGINFVANPLVNIHLQGRFDTYPKRRGITRVKEMLESGINVCFGHDDVFDPWYPLGTANMLQVLHMGLHVCQLMGYGQINDGLNLITHHSARTLNLQDYGIAAGNSANLIILPAENGFDALRRQVPVRYSVRGGKVIASTQPAQTTVYLEQPEAIDYKR
Consider B1, for which, in data set [3], the Km is 2520 µM and the kcat was found to be 53.57 s⁻¹. For the same molecule, the “melting temperature, reported value” in data set [4] is 85 °C.

As usually defined, the Kd is a measure of binding affinity in units of concentration. Low values mean tighter binding, high ones weaker binding. A word on the Km: it is the substrate concentration at which the rate is half of its maximum. The term kcat denotes the number of substrate molecules converted per active site and unit of time at saturation.
